Ends that are not written are not given here. SA = 4-(aminooxymethyl)benzenesulfonamide joined by oxime ligation to the periodate-oxidised N-terminal serine; Glu = glucose (not glutamate); Rha = rhamnose

Test [1] deals with human Galectin-3 (Homo sapiens, UniProt P17931). The test is described as follows: ELISA-like competition assay: inhibition of HRP-Lactose binding to surface-immobilized Galectin-3. Conditions: for Times more potent than MeGal at inhibiting HRP-Lac binding to Galectin-3: versus MeGal. From the text: Using an ELISA-like competition assay (FIGS. 12, 13), the binding activity of these glycopeptides to carbohydrate recognition domain (CRD) of the human Galectin-3 and their ability to compete with binding of Lactose-conjugated horseradish peroxidase (HRP), were validated (FIG. 12). As references, we used known Gal3 ligands, such as lactose, Methyl-β-D-galactopiranoside (MeGal) and tetrasaccharide Lacto-N-Tetraose (LNT).
Chain of human Galectin-3 (P17931 whole entry, the tested form may be a part): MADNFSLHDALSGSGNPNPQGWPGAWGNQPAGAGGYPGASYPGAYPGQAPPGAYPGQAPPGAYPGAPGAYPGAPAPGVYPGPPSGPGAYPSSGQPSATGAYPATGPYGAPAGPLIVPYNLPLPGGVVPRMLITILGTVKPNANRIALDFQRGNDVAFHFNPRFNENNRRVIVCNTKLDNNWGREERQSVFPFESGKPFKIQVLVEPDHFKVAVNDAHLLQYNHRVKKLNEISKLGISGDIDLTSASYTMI
FIG. 12 illustrates an evaluation of activity of hits identified from genetically-encoded libraries of glycopeptides against […]. The assay measures that inhibitory constant (denoted as Effective concentrations of half-maximal response or EC50) of compounds in the inhibition of the interaction between soluble HRP-Lactose and surface-immobilized Galectin-3.
The competitive activity is quantified as decrease in color development by HRP-lac conjugate bound to Galectin-3 coated at 10 μg/ml concentration on polystyrene 96-well plates.
For orientation: An ELISA detects its analyte on a solid surface through an enzyme-linked reagent.

Test [2] deals with T1, human Galectin-3 protein (human, UniProt P17931 2-250, limits assumed).
T1 construct: also called Gal3
T1 sequence (P17931 2-250 limits assumed): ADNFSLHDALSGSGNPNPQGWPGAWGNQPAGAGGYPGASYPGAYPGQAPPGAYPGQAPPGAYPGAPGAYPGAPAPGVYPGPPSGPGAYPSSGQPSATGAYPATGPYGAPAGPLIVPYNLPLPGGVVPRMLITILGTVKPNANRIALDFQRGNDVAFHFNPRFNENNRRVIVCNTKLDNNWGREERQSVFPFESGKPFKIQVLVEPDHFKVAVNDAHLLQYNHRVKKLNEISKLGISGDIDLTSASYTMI
Description: ELISA-like competition with HRP-Lactose on Galectin-3 coated wells; reference MeGal.

The target in test [3] is T1, human Galectin-3 protein. Description: ELISA-like competition with HRP-Lac on Galectin-3 coated plates; reference lactose.
Test [4] has as its target T1, human Galectin-3 protein. Description: ELISA-like competition with HRP-Lac on Galectin-3 coated plates; reference MeGal.
Test [5] deals with T2, Bovine carbonic anhydrase II (bovine, UniProt P00921 2-260).
T2 construct: Commercial protein; also called BCA
T2 sequence (P00921 2-260 limits assumed): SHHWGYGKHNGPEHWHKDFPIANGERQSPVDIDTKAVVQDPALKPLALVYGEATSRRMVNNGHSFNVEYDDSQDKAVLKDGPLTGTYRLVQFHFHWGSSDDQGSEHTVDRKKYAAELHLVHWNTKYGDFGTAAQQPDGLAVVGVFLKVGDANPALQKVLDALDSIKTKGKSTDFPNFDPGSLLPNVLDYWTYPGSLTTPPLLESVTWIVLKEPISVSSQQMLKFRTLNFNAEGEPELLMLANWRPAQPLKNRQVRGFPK
Description: panning/deep seq., Ratio col 2 (Carbonic/Naive by arithmetic) [Carbonic Anhydrase].

Test [6] concerns the target T2, Bovine carbonic anhydrase II. The test is described as follows: panning/deep seq., Carbonic rep 2 [Carbonic Anhydrase].
For test [7] the target is unchanged. The test is described as follows: panning/deep seq., Carbonic rep 3 [Carbonic Anhydrase].
For test [8] the target is unchanged. The test is described as follows: panning/deep seq., Ratio col 1 (Carbonic/Blank by arithmetic) [Carbonic Anhydrase].
Test [9] has the same target. Description: panning/deep seq., Ratio col 3 (Carbonic/Bulk amplified by arithmetic) [Carbonic Anhydrase].
The target is the same in test [10]. The test is described as follows: panning/deep seq., Carbonic rep 1 [Carbonic Anhydrase].
Test [11] has the same target. The test is described as follows: isothermal titration calorimetry, 30 C, single binding site model; selected peptide SA-WIVP (SEQ ID NO:26). The protocol:
(§1) FIG. 9 provides additional replicates of raw ITC data of sulfonamide-peptide (SA-XXXX) binding to carbonic anhydrase. Raw data obtained for 30 injections of ligands (20-95 μM) into a solution of carbonic anhydrase (2.5-12 μM) at 4-min intervals and 30° C. is shown.
In general terms: In ITC the heat of successive injections is recorded.

The target is the same in test [12]. The test is described as follows: ITC, replicate [row SA-WIVP, right panel]. On the procedure: as §1
For test [13] the target is unchanged. The test is described as follows: ITC, replicate [row SA-WIVP, middle panel]. On the procedure: as §1
Test [14] has the same target. The test is described as follows: isothermal titration calorimetry; reference SA-GGGG. The protocol:
as §1

The target is the same in test [15]. The test is described as follows: ITC, replicate [row SA-GGGG, right panel].
The target is the same in test [16]. The test is described as follows: ITC, replicate [row SA-GGGG, middle panel]. The protocol: as §1
Test [17] has the same target. The test is described as follows: isothermal titration calorimetry, 30 C, single binding site model; control peptide SA-GGGG (SEQ ID NO:101). The protocol:
as §1

Test [18] has the same target. Description: ITC, replicate [row SA-TRPA, middle panel]. The protocol:
as §1

Test [19] shares this target. Description: ITC, replicate [row SA-TRPA, right panel]. On the procedure:
as §1

Test [20] shares this target. The test is described as follows: ITC, replicate [row SA-TRPA, left panel].
Test [21] concerns the target T1, human Galectin-3 protein. Description: competition ELISA: HRP-Lactose binding to plate-coated Galectin-3 [upper left panel]. In outline:
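In an ELISA-like format, polystyrene 96-well plates carried the carbohydrate recognition domain of human Galectin-3, coated at 10 μg/ml. Test molecules competed with a lactose-conjugated horseradish peroxidase probe, measured as reduced colour development, and the half-maximal inhibitory concentration was derived from the resulting curves.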

The EC50 is the midpoint of the concentration-response curve. Consider “Gal-PAPT: Galactose modified glycopeptide, SEQ ID NO:105”, for which the EC50 in test [1] (FIG. 12, read-out: EC50, inhibition of interaction between soluble HRP-Lactose and surface-immobilized Galectin-3) stood at 14 µM.
“Glu-SIYG (glucose-modified tetramer peptide)” came in with a fold higher potency than MeGal in test [2] of 10 fold.
Consider “Glu-SIYG: combination of glucose and tetramer peptide, SEQ ID NO:106 (also: residue 1 modified with glucose, attachment not given here)”, for which the “Times more potent than MeGal at inhibiting HRP-Lac binding to Galectin-3” value in [1] turned out to be 10 times.
Molecule Rha-IWVR (rhamnose-peptide conjugate) came in with a fold better than Lactose control in test [3] of 10 fold. Further, in test [4], the fold more potent inhibitor than MeGal was 400 fold.
Consider “Rha-IWVR: Rhamnose-peptide conjugate, SEQ ID NO:108 (also: residue 1 conjugated with rhamnose, attachment not given here)”, for which the “Potency in HRP-Lac competition compared in words with a control” value in test [1] (comparison with Lactose, MeGal or LNT) is listed as “in the same order of the LNT”. Further, the “Times better than Lactose at inhibiting HRP-Lac binding to Galectin-3” value in test [1] (versus Lactose) was 10 times. Also, the “Times more potent than MeGal at inhibiting HRP-Lac binding to Galectin-3” value in test [1] turned out to be 400 times.
For SA-WYKL (peptide), the Ratio is 288 in [5], 2560 in test [8] and 121 in test [9]. Also, the copy number in test [6] came out at 1160; in test [7], 285; in [10], 862.
As to SA-YGTH (peptide), the Ratio amounted to 26 in test [5], 257 in test [8] and 7 in test [9]. Further, the figures for the copy number in test [6], in [7] and in test [10] were 118, 63 and 50, respectively.
Consider SA-YMSN (peptide), for which the Ratio in [5] came out at 143; in test [8], 143; in test [9] it was 10. Also, the copy number was determined as 25 in [6], 53 in test [7] and 51 in test [10].
SA-YQYS (peptide): the Ratio in [5] was 44; in test [8] it was 443; in test [9] it was 44. In addition, the copy number was found to be 194 in [6], 51 in [7] and 154 in test [10].

B1: SA-WIVP (sulfonamide-modified peptide) (peptide)
peptide: {SA}-WIVP-NH2
modifications: also: N-terminal SA cap oxime-linked, made from oxidised N-terminal Ser
notes: Synthetic conjugate made from the peptide S-WIVP; The N-terminal Ser is turned into the oxime-linked sulfonamide; also called sulfonamide-peptide; SA-XXXX
The Kd is the concentration at which binding is half-saturated. A higher Kd goes with weaker binding. On to B1, for which the Kd is 0.005 µM in [11], 0.006 µM in test [12] and 0.009 µM in test [13]. Moreover, the “fold stronger affinity than control peptide SA-GGGG” value in test [14] worked out at 30 fold.

B2: SA-GGGG (control sulfonamide-modified peptide) (peptide)
peptide: {SA}-GGGG-NH2
modifications: also: N-terminal SA cap oxime-linked, made from oxidised N-terminal Ser
notes: Control peptide in ITC; also called control peptide SA-GGGG
Regarding B2, the figures for the dissociation constant Kd in [15], in test [16] and in test [17] were 0.14 µM, 0.13 µM and 0.15 µM, respectively.
Regarding {SA}-TRPA-NH2 (also: N-terminal SA cap oxime-linked, made from oxidised N-terminal Ser) [SA-TRPA], the Kd in test [18] came to 0.031 µM; in test [19] it was 0.038 µM; in test [20] it was 0.033 µM.
As to Rha-PQLP (not fully specified; printed as Rha-PQLP) [Rha-PQLP], the “IC50 (read off the curve)” value in test [21] is roughly 1000 µM.
